From patent US20110123511A1 (ICAHN SCHOOL OF MEDICINE AT MOUNT SINAI, published 2011) come the findings set out here.

This series deals with the molecule itself. As to the kind of experiment: gel filtration chromatography (self-association, homodimer). (Size exclusion chromatography separates by hydrodynamic size, large species first.)

Changes are numbered by the printed parent chain.

B1: vSET triple mutant KR(M)R-to-AA(M)A (aa 85-88) (enzyme)
chain: MFNDRVIVKKSPLGGYGVFARKSFEKGELVEECLCIVRHNDDWGTALEDYLFSRKNMSAMALGFGAIFNHSKDPNARHELTAGLAAMAIFTIKPIAIGEEITISYGDDYWLSRPRLTQN
notes: elutes as a dimer like the wild type; also called KR(M)R/AA(M)A
In the case of B1, the binding result is “binds”.

B2: recombinant wild-type vSET expressed in E. coli BL21 (enzyme)
chain: B1 chain with A85K, A86R, A88R
notes: also called hexa-histidine tagged vSET; not shown: tag in the
As to B2, the binding result is listed as “binds”.
